To fix the notation:
B1: 22247 (protein)
chain: MALPVTALLLPLALLLHAARPACPQLGPYELWELSHGTGAVVRGAEFDIQMTQSPSSLSASVGDRVTITCKASDHINNWLAWYQQKPGQAPKLLIYGATTLETGVPSRFSGSGSGTDYTLTISSLQPEDFATYYCQQSWNTPWTFGQGTKLEIKRLEDLKNVFPPEVAVFEPSKAEIAHTQKATLVCLATGFYPDHVELSWWVNGKEVHSGVCTDPQPLKEQPALNDSRYCLSSRLRVSATFWQNPRNHFRCQVQFYGLSENDEWTQDRAKPVTQIVSAEAWGRADCGITSASYHQGVLSATILYEILLGKATLYAVLVSALVLMAMVKRKDSRGRAKRSGSGATNFSLLKQAGDVEENPGPTSATMDWIWRILFLVGAATGAHSGPQVQLQESGGGLAQAGGSLRLSCAASGRTFSMGWFRQAPGKEREFVAAITYSGGSPYYASSVRGRFTISRDNAKNTVYLQMNSLKPEDTAVYYCAANPTYGSDWNAENWGQGTQVTVSSGSGGGGSGGGGSGGGGSFEQVQLQQPGAELVKPGASVKMSCKASGYAFSSYWINWMKQKPGQGLEWIGQIYPGDGDTNYNGKFKGRATLTADTSSSTAYMQLSSLTSEDSAVYFCARSITTVVGCAMDYWGQGTSVTVSSTRIQNPDPAVYQLRDSKSSDKSVCLFTDFDSQTNVSQSKDSDVYITDKCVLDMRSMDFKSNSAVAWSNKSDFACANAFNNSIIPEDTFFPSSDVPCDVKLVEKSFETDTNLNFQNLSVIGFRILLLKVAGFNLLMTLRLWSSRAKRSGSGVKQTLNFDLLKLAGDVESNPGPSRGHMTEYKPTVRLATRDDVPRAVRTLAAAFADYPATRHTVDPDRHIERVTELQELFLTRVGLDIGKVWVADDGAAVAVWTTPESVEAGAVFAEIGPRMAELSGSRLAAQQQMEGLLAPHRPKEPAWFLATVGVSPDHQGKGLGSAVVLPGVEAAERAGVPAFLETSAPRNLPFYERLGFTVTADVEVPEGPRTWCMTRKPGA
B2: 22214 (protein)
chain: MALPVTALLLPLALLLHAARPACPYINIYNAEPANPSEKNSPTQYAYGTGPQGIFGQPGYINEFDIQMTQSPSSLSASVGDRVTITCKASDHINNWLAWYQQKPGQAPKLLIYGATTLETGVPSRFSGSGSGTDYTLTISSLQPEDFATYYCQQSWNTPWTFGQGTKLEIKRLEDLKNVFPPEVAVFEPSKAEIAHTQKATLVCLATGFYPDHVELSWWVNGKEVHSGVCTDPQPLKEQPALNDSRYCLSSRLRVSATFWQNPRNHFRCQVQFYGLSENDEWTQDRAKPVTQIVSAEAWGRADCGITSASYHQGVLSATILYEILLGKATLYAVLVSALVLMAMVKRKDSRGRAKRSGSGATNFSLLKQAGDVEENPGPTSATMDWIWRILFLVGAATGAHSGPQVQLQESGGGLAQAGGSLRLSCAASGRTFSMGWFRQAPGKEREFVAAITYSGGSPYYASSVRGRFTISRDNAKNTVYLQMNSLKPEDTAVYYCAANPTYGSDWNAENWGQGTQVTVSSGSGGGGSGGGGSGGGGSFEQVQLQQPGAELVKPGASVKMSCKASGYAFSSYWINWMKQKPGQGLEWIGQIYPGDGDTNYNGKFKGRATLTADTSSSTAYMQLSSLTSEDSAVYFCARSITTVVGCAMDYWGQGTSVTVSSTRIQNPDPAVYQLRDSKSSDKSVCLFTDFDSQTNVSQSKDSDVYITDKCVLDMRSMDFKSNSAVAWSNKSDFACANAFNNSIIPEDTFFPSSDVPCDVKLVEKSFETDTNLNFQNLSVIGFRILLLKVAGFNLLMTLRLWSSRAKRSGSGVKQTLNFDLLKLAGDVESNPGPSRGHMTEYKPTVRLATRDDVPRAVRTLAAAFADYPATRHTVDPDRHIERVTELQELFLTRVGLDIGKVWVADDGAAVAVWTTPESVEAGAVFAEIGPRMAELSGSRLAAQQQMEGLLAPHRPKEPAWFLATVGVSPDHQGKGLGSAVVLPGVEAAERAGVPAFLETSAPRNLPFYERLGFTVTADVEVPEGPRTWCMTRKPGA
B3: 22248 (protein)
chain: MALPVTALLLPLALLLHAARPDIQMTQSPSSLSASVGDRVTITCKASDHINNWLAWYQQKPGQAPKLLIYGATTLETGVPSRFSGSGSGTDYTLTISSLQPEDFATYYCQQSWNTPWTFGQGTKLEIKRLEDLKNVFPPEVAVFEPSEAEISHTQKATLVCLATGFYPDHVELSWWVNGKEVHSGVCTDPQPLKEQPALNDSRYCLSSRLRVSATFWQNPRNHFRCQVQFYGLSENDEWTQDRAKPVTQIVSAEAWGRADCGFTSESYQQGVLSATILYEILLGKATLYAVLVSALVLMAMVKRKDSRGRAKRSGSGATNFSLLKQAGDVEENPGPTSATMDWIWRILFLVGAATGAHSGPQLGPYELWELSHGSGPLGIAGIFEQVQLQQPGAELVKPGASVKMSCKASGYAFSSYWINWMKQKPGQGLEWIGQIYPGDGDTNYNGKFKGRATLTADTSSSTAYMQLSSLTSEDSAVYFCARSITTVVGCAMDYWGQGTSVTVSSTRIQNPDPAVYQLRDSKSSDKSVCLFTDFDSQTNVSQSKDSDVYITDKCVLDMRSMDFKSNSAVAWSNKSDFACANAFNNSIIPEDTFFPSPESSCDVKLVEKSFETDTNLNFQNLSVIGFRILLLKVAGFNLLMTLRLWSSRAKRSGSGVKQTLNFDLLKLAGDVESNPGPSRGHMTEYKPTVRLATRDDVPRAVRTLAAAFADYPATRHTVDPDRHIERVTELQELFLTRVGLDIGKVWVADDGAAVAVWTTPESVEAGAVFAEIGPRMAELSGSRLAAQQQMEGLLAPHRPKEPAWFLATVGVSPDHQGKGLGSAVVLPGVEAAERAGVPAFLETSAPRNLPFYERLGFTVTADVEVPEGPRTWCMTRKPGA
B4: 22243 (protein)
chain: MALPVTALLLPLALLLHAARPACQDKLTQWPKWLEGTGGGGSGGGGSGGGGSEFDIQMTQSPSSLSASVGDRVTITCKASDHINNWLAWYQQKPGQAPKLLIYGATTLETGVPSRFSGSGSGTDYTLTISSLQPEDFATYYCQQSWNTPWTFGQGTKLEIKRLEDLKNVFPPEVAVFEPSKAEIAHTQKATLVCLATGFYPDHVELSWWVNGKEVHSGVCTDPQPLKEQPALNDSRYCLSSRLRVSATFWQNPRNHFRCQVQFYGLSENDEWTQDRAKPVTQIVSAEAWGRADCGITSASYHQGVLSATILYEILLGKATLYAVLVSALVLMAMVKRKDSRGRAKRSGSGATNFSLLKQAGDVEENPGPTSATMDWIWRILFLVGAATGAHSGPQVQLQESGGGLAQAGGSLRLSCAASGRTFSMGWFRQAPGKEREFVAAITYSGGSPYYASSVRGRFTISRDNAKNTVYLQMNSLKPEDTAVYYCAANPTYGSDWNAENWGQGTQVTVSSGSGGGGSGGGGSGGGGSFEQVQLQQPGAELVKPGASVKMSCKASGYAFSSYWINWMKQKPGQGLEWIGQIYPGDGDTNYNGKFKGRATLTADTSSSTAYMQLSSLTSEDSAVYFCARSITTVVGCAMDYWGQGTSVTVSSTRIQNPDPAVYQLRDSKSSDKSVCLFTDFDSQTNVSQSKDSDVYITDKCVLDMRSMDFKSNSAVAWSNKSDFACANAFNNSIIPEDTFFPSSDVPCDVKLVEKSFETDTNLNFQNLSVIGFRILLLKVAGFNLLMTLRLWSSRAKRSGSGVKQTLNFDLLKLAGDVESNPGPSRGHMTEYKPTVRLATRDDVPRAVRTLAAAFADYPATRHTVDPDRHIERVTELQELFLTRVGLDIGKVWVADDGAAVAVWTTPESVEAGAVFAEIGPRMAELSGSRLAAQQQMEGLLAPHRPKEPAWFLATVGVSPDHQGKGLGSAVVLPGVEAAERAGVPAFLETSAPRNLPFYERLGFTVTADVEVPEGPRTWCMTRKPGA
B5: 22244 (protein)
chain: MALPVTALLLPLALLLHAARPDIQMTQSPSSLSASVGDRVTITCKASDHINNWLAWYQQKPGQAPKLLIYGATTLETGVPSRFSGSGSGTDYTLTISSLQPEDFATYYCQQSWNTPWTFGQGTKLEIKRLEDLKNVFPPEVAVFEPSEAEISHTQKATLVCLATGFYPDHVELSWWVNGKEVHSGVCTDPQPLKEQPALNDSRYCLSSRLRVSATFWQNPRNHFRCQVQFYGLSENDEWTQDRAKPVTQIVSAEAWGRADCGFTSESYQQGVLSATILYEILLGKATLYAVLVSALVLMAMVKRKDSRGRAKRSGSGATNFSLLKQAGDVEENPGPTSATMDWIWRILFLVGAATGAHSGPSACPYSNPSLCSGSGGGGSGGGGSGGGGSFEQVQLQQPGAELVKPGASVKMSCKASGYAFSSYWINWMKQKPGQGLEWIGQIYPGDGDTNYNGKFKGRATLTADTSSSTAYMQLSSLTSEDSAVYFCARSITTVVGCAMDYWGQGTSVTVSSTRIQNPDPAVYQLRDSKSSDKSVCLFTDFDSQTNVSQSKDSDVYITDKCVLDMRSMDFKSNSAVAWSNKSDFACANAFNNSIIPEDTFFPSPESSCDVKLVEKSFETDTNLNFQNLSVIGFRILLLKVAGFNLLMTLRLWSSRAKRSGSGVKQTLNFDLLKLAGDVESNPGPSRGHMTEYKPTVRLATRDDVPRAVRTLAAAFADYPATRHTVDPDRHIERVTELQELFLTRVGLDIGKVWVADDGAAVAVWTTPESVEAGAVFAEIGPRMAELSGSRLAAQQQMEGLLAPHRPKEPAWFLATVGVSPDHQGKGLGSAVVLPGVEAAERAGVPAFLETSAPRNLPFYERLGFTVTADVEVPEGPRTWCMTRKPGA
B6: 22211 (protein)
chain: B5 chain with S362Q, A363L, C364G, S367E, N368L, P369W, S370E, C372S, S373H

Numbering of substitutions follows the chain as printed.

The assay relates to RAJI cells. In words: JNG assay, co-culture with RAJI cells. In kind it is cell-based. The conditions noted are these: JNG cells expressing construct, co-culture with Raji. A digest of the protocol: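 Read-out is NFAT-driven GFP measured by flow cytometry after ~4–18 h co-culture of SAR-expressing JNG cells with target cells (E:T about 1:2). SARs were introduced by lentiviral spinfection and selected with puromycin or blasticidin when possible; scores (+/- to 5+ ≈ 5–50% GFP+) are relative to parental JNG cells.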
For B1, the “NFAT-GFP ASSAY: Raji” value is “Raji (2+) (refer to approximately 5%, 10%, 20%, 30%, 40% and 50% GFP positive cells)”. The value for B2 was “Raji (+) (refer to approximately 5%, 10%, 20%, 30%, 40% and 50% GFP positive cells)”. Under B3 stands “Raji (3+) (refer to approximately 5%, 10%, 20%, 30%, 40% and 50% GFP positive cells)”; under B4, “Raji (3+) (refer to approximately 5%, 10%, 20%, 30%, 40% and 50% GFP positive cells)”.

On to B5, for which the “NFAT-GFP ASSAY: Raji” value is “Raji (+/-) (refer to approximately 5%, 10%, 20%, 30%, 40% and 50% GFP positive cells)”. The value for B6 was 2+ (refer to approximately 5%, 10%, 20%, 30%, 40% and 50% GFP positive cells).

These data come from US20230212319A1, “NOVEL ANTIGEN BINDING DOMAINS AND SYNTHETIC ANTIGEN RECEPTORS INCORPORATING THE SAME” (University of Southern California, priority 2020, published 2023).
